The results in this text go back to patent publication US20230025129A1 (KYMAB, published 2023).

The chains are these.
T1: mouse matriptase-2 ECD protein his tag (mouse, UniProt Q9DBI0 80-811)
T1 sequence: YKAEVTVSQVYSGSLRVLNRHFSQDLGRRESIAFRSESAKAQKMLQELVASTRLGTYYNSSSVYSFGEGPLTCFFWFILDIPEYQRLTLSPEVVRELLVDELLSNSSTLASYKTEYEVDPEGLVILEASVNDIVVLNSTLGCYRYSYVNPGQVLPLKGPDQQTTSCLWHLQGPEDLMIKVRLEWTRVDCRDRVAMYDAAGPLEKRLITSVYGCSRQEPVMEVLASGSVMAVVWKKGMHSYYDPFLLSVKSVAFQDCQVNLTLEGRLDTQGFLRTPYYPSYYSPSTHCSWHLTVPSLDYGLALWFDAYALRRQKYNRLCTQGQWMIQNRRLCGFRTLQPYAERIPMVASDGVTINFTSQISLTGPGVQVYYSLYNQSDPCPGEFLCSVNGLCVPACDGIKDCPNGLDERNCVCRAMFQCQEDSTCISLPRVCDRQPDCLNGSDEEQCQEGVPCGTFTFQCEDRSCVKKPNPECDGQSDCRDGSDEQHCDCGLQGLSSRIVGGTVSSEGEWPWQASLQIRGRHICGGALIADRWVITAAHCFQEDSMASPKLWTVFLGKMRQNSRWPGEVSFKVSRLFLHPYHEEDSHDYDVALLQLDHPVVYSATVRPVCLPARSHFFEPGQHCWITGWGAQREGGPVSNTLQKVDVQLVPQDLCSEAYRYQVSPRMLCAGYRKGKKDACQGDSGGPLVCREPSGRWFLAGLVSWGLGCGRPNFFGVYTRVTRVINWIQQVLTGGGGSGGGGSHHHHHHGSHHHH

T2: human MTP-2 expressed on HEK293 cells (human, UniProt Q8IU80 1-811)
T2 sequence: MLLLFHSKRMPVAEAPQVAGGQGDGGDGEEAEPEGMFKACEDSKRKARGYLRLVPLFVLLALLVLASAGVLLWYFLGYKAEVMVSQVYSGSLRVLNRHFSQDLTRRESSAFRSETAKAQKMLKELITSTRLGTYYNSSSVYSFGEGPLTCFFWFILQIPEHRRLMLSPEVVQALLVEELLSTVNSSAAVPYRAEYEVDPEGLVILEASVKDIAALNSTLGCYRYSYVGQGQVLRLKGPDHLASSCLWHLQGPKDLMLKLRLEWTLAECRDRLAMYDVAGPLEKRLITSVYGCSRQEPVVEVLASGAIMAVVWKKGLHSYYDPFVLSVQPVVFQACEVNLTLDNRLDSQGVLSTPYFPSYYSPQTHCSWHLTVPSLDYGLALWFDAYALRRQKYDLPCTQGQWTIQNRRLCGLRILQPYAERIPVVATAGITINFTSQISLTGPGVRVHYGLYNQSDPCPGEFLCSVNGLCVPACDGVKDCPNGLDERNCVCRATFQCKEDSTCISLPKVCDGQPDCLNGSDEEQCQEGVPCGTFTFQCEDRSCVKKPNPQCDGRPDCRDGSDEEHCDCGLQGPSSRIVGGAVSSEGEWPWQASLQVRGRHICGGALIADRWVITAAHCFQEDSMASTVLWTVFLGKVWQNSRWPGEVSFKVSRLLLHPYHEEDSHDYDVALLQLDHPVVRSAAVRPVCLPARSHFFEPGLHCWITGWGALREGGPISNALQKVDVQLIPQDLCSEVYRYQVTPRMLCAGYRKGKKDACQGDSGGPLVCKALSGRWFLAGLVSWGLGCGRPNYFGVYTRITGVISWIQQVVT

T3: human matriptase-2 ECD protein his tag (human, UniProt Q8IU80 78-811)
T3 sequence: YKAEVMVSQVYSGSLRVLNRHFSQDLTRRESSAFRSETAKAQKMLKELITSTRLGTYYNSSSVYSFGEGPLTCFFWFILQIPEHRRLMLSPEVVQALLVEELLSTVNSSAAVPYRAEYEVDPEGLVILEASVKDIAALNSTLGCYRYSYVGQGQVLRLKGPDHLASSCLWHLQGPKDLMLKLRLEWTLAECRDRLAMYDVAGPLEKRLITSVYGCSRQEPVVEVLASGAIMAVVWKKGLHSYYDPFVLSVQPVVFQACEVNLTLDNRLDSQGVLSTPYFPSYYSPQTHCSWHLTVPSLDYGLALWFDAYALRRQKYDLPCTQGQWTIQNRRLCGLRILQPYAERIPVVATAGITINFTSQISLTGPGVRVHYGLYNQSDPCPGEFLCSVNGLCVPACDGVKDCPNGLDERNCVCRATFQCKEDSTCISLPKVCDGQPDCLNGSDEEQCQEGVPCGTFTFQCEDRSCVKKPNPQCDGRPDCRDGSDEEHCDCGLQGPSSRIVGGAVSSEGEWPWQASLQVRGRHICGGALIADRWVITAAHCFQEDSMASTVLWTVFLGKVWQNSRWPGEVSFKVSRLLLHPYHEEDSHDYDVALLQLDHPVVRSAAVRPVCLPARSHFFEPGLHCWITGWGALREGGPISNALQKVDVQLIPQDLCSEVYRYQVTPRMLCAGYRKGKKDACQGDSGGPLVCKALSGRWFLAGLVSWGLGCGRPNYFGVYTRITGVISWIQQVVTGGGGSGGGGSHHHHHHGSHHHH

B1: NORI-017 (antibody, human IgG4 S228P, lambda, V domains shown)
VH: QVHLVESGGAVVQPGRSLRLSCAASGFTFSNFDMHWVRQTPGKGLEWVTIIRYDETNIYYTESVKGRFTTSRDNSKNTLYLQMNSLRVEDTAVYYCARGWTGSYVFDYWGQGALVTVSS
VL: QSVLTQPPSVSEAPRQRVTISCSGGSSNIGNNAVNWYQQVPGKAPKLLIHYDDLLPSGVSDRFSGSKSGTSASLAISGLQSEDEADYYCAAWDDSLNGVVFGGGTKLTVLG
B2: NORI-019 (antibody, human IgG4 S228P, lambda, V domains shown)
VH: QVQLVESGGGVVQPGRSLRLSCAASGFTFSNFDMHWVRQAPGKGLEWVAIISYDGSDKYYEDSVKGRFTISRDNSKNTLYLQMNSLRAEDTAIYYCAKDGYGSSLFDHWGQGTLVTVSS
VL: B1 VL with G25S, Y37F, V40L, K43E, A44V, H50Y, A91V, V100L
B3: NORI-007 (antibody, human IgG4 S228P, kappa, V domains shown)
VH: EVQLVESGGGLVKPGRSLRLSCTGSGFTFGDFGMSWFRQAPGKGLEWVCFIRSKPYGGTTDYAPSVKGRFTISRDDSISIAYLQMNSLTTEDTAVYYCSRNDILTGYYIFDYWGQGTQVTVSS
VL: DIQMTQSPSSLSASLGDSITITCQASQDITNYLIWYQHKPGKAPKLLIFDASNLETGVPSRFSGSGSGTDFTFTISSLQPEDYATYYCQQYYNLPLTFGGGTKVDIKR
B4: NORI-002 (antibody, human IgG4 S228P, kappa, V domains shown)
VH: B3 VH with K67R, T71S, I78K, S79G, A81V, T89R, D102E, Q118L
VL: B3 VL with S18R, I19V, Q27H, H38Q, K45R, N53I, Y83F
B5: NORI-004 (antibody, human IgG4 S228P, kappa, V domains shown)
VH: B3 VH with G68D, I78K, S79D, A81V, T89R, D102E, Q118L
VL: B3 VL with S18R, I19V, Q27H, H38Q, K45R, N53I, Y83F
B6: NORI-021 (antibody, human IgG4 S228P, lambda, V domains shown)
VH: QVQLVESGGGLVKPGGSLRLSCAAFGFTFSDYYMGWIRQAPGKGLEWVSHISSSGRTRYYADSVKGRFTISRDNAKNALYLQMDSLRAEDTAVFYCARAQLRYFDWLDYWGQGTLVTVSS
VL: QSVLTQPPSVSAAPGQKVTISCSGSGSNIGNNYVSWYQQVPGTAPKLLIYDNNKRPSGIPDRFSGSKSGTSATLGITGLQTGDEADYYCGTWDSSLSAGVFGGGTKLTVLG
B7: NORI-018 (antibody, human IgG4 S228P, lambda, V domains shown)
VH: QLQLVQSGAEVKKPGASVKVSCKASGYTFTTFGIVWVRQAPGQGLEWMGWISGYNGNTKYAQNLQGRVTMTTDTSTSTAYMELRSLRSDDTAIYYCARDRAIAPRFDPWGQGTLVTVSS
VL: SYELTQPPSVSVSPGQAASIPCSGDNLGDNFACWYQQKPGQSPVLVIYQDSKRPSGIPERFSGSNSGNTATLTINGTQAMDEADYYCQAWDSSTVVFGGGTKLTVLG
B8: NORI-005 (antibody, human IgG4 S228P, kappa, V domains shown)
VH: EVHLVESGGGLIKPGRSLRLSCTGSGFTFGDFGLSWFRQAPGKGLEWISFIRSKPYGGTTDYAASVKGRFTISRDDSKSVAYLQMNSLKTEDSAVYYCARNEILTGYYIFDYWGQGILVTVSS
VL: DIQMTQSPSSLSASLGDRLTITCQASQDISNYLSWYQLQPGKAPKLLIFDASILETGVPSRFSGSGSGTDFSFTVSSLQPEDIATYYCQQYDNLPLTFGGGTKVDLKR
B9: NORI-015 (antibody, human IgG4 S228P, lambda, V domains shown)
VH: EVQLVESGGGLIQAGRSLRLSCAASGFTFDEHVIYWVRQIPGKGLEWISSISWKSDIIAYADSVKGRFTISRDNAKNALYLQMNSLRAEDTALYYCAREKDGDFYYYYFAMDVWGQGTTVTVSS
VL: QSALTQPPSASGSPGQSVTISCTGTSSNVGYYNYVSWYQQHPGKAPKLMIYEVNKRPSGVPDRFSGSKSANTASLTVSGLQADDEADYYCSSYAGSNKVVFGGGTKLTVLG
B10: NORI-016 (antibody, human IgG4 S228P, lambda, V domains shown)
VH: B9 VH with I34M, S52T
VL: B9 VL
B11: NORI-001 (antibody, human IgG4 S228P, kappa, V domains shown)
VH: QVQLVQSGAEVKKPGASVKVSCKVSGYTLSEFSIHWVRQAPGKGLEWMGGFDPEKGKTIYAQKFQGRVTMTEDTSTDTAYMDLSSLRSEDTAVYYCVTEGHFYGSGVFDFWGQGTLVTVSS
VL: DIQMTQSPSSLSASVGDRVTITCRPSQGLRFDFGWYQQRPGKAPRRLIYAASILQSGVPSRFSGSGSGTEFTLTISSLQPEDFATYYCLQHNNYPWTFGQGTKVEIKR
B12: NORI-020 (antibody, human IgG4 S228P, lambda, V domains shown)
VH: QLQLQESGPGLVKPAETLSLMCTVSGDSISSSHYFWGWIRQPPGKGLEWIGSMYYSGSTYYNPSLKSRVTISVDTSNNQFSLKLRSVTAADTAVYYCVRHNNWGLDNYFDYWGQGTLVTVSS
VL: SYELTQPPSVSVSPGQTARITCSADALPDQYAYWYQQKPGQAPLLVIYKDSERPSGIPERFSGSSSGTIVTLTIRGVQAEDEADYYCQSADSSGSYAVFGGGTKLTVLG

Substitutions are numbered along the chain they refer to.

One test deals with T1, mouse matriptase-2 ECD protein his tag. Briefly: cell-based or functional assay.
As for B1, the “Inhibition enzymatic activity mouse MTP2 protein (IC50)” value was determined as 0.489 nM.
With B2, the “Inhibition enzymatic activity mouse MTP2 protein (IC50)” value was 0.911 nM.
As for B3, the “Inhibition enzymatic activity mouse MTP2 protein (IC50)” value came to 39.3 nM.
Consider B4, for which the “Inhibition enzymatic activity mouse MTP2 protein (IC50)” value stood at 16.2 nM.
With B5, the “Inhibition enzymatic activity mouse MTP2 protein (IC50)” value turned out to be 22.4 nM.
Regarding B6, the “Inhibition enzymatic activity mouse MTP2 protein (IC50)” value amounted to 1.9 nM.
Take B7: the “Inhibition enzymatic activity mouse MTP2 protein (IC50)” value turned out to be 0.589 nM.
Consider B8, for which the “Inhibition enzymatic activity mouse MTP2 protein (IC50)” value came to 12.7 nM.
B9: the “Inhibition enzymatic activity mouse MTP2 protein (IC50)” value worked out at 5.7 nM.
On to B10, for which the “Inhibition enzymatic activity mouse MTP2 protein (IC50)” value amounted to 9.27 nM.
In the case of B11, the “Inhibition enzymatic activity mouse MTP2 protein (IC50)” value came out at 12.4 nM.
On to B12, for which the “Inhibition enzymatic activity mouse MTP2 protein (IC50)” value worked out at 1.44 nM.

The next test concerns the target T2, human MTP-2 expressed on HEK293 cells. Briefly: cell-based or functional assay.
Regarding B1, the “Inhibition enzymatic activity human MTP2 on cells (IC50)” value was 0.198 nM.
On to B2, for which the “Inhibition enzymatic activity human MTP2 on cells (IC50)” value worked out at 0.0978 nM.
As to B6, the “Inhibition enzymatic activity human MTP2 on cells (IC50)” value came to 8.21 nM.
As for B7, the “Inhibition enzymatic activity human MTP2 on cells (IC50)” value was found to be 2.22 nM.
For the molecule B12, the “Inhibition enzymatic activity human MTP2 on cells (IC50)” value was 0.146 nM.

Another test has as its target T3, human matriptase-2 ECD protein his tag. Put plainly: cell-based or functional assay.
B1: the “Inhibition enzymatic activity human MTP2 protein (IC50)” value is 1.51 nM.
Turning to B2, the “Inhibition enzymatic activity human MTP2 protein (IC50)” value is 1.54 nM.
Take B3: the “Inhibition enzymatic activity human MTP2 protein (IC50)” value was 8.79 nM.
Regarding B4, the “Inhibition enzymatic activity human MTP2 protein (IC50)” value amounted to 8.53 nM.
Still for that read-out and setting: the result for B5 reads 5.9 nM; that for B6, 2.71 nM.
With B7, the “Inhibition enzymatic activity human MTP2 protein (IC50)” value was determined as 2.12 nM.
Same read-out and setting: the result for B8 reads 5.95 nM.
As for B9, the “Inhibition enzymatic activity human MTP2 protein (IC50)” value worked out at 5.51 nM.
B10: the “Inhibition enzymatic activity human MTP2 protein (IC50)” value stood at 10.4 nM.
On to B11, for which the “Inhibition enzymatic activity human MTP2 protein (IC50)” value amounted to 10.1 nM.
B12: the “Inhibition enzymatic activity human MTP2 protein (IC50)” value came out at 1.72 nM.
